From patent US20120282279A1 (COVX TECHNOLOGIES IRELAND, published 2012) come the findings set out here.

The experiment addresses FGF21 cell surface receptor composed of FGFR1c and β-Klotho (on the cells of the bioactivity assays) (UniProt P16092 22-822; Q99N32 1-1043, limits assumed). Put plainly: cell-based or functional assay.

Sequence of FGF21 cell surface receptor composed of FGFR1c and β-Klotho (on the cells of the bioactivity assays) (P16092 22-822 limits assumed, chain 1 of 2): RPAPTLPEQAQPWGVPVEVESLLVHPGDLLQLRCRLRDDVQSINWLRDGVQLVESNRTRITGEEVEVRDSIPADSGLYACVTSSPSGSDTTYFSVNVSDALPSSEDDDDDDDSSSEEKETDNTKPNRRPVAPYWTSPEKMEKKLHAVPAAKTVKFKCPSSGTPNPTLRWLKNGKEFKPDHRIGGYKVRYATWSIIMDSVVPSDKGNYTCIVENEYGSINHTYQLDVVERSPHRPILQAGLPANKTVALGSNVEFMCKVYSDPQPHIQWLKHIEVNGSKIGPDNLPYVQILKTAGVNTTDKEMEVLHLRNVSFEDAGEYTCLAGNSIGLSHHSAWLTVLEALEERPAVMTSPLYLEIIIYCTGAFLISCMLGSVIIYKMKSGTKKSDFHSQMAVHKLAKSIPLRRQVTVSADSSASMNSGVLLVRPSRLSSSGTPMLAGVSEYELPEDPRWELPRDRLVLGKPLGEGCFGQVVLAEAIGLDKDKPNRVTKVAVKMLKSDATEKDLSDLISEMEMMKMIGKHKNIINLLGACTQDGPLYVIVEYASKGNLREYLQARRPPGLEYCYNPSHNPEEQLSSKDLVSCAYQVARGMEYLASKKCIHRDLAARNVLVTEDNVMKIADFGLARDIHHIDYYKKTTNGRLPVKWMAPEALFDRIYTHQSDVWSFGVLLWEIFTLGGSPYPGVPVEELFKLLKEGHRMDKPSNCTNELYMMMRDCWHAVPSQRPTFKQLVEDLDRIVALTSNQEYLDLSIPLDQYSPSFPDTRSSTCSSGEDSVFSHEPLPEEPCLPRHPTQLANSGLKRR
Sequence of FGF21 cell surface receptor composed of FGFR1c and β-Klotho (on the cells of the bioactivity assays) (Q99N32 whole entry, chain 2 of 2): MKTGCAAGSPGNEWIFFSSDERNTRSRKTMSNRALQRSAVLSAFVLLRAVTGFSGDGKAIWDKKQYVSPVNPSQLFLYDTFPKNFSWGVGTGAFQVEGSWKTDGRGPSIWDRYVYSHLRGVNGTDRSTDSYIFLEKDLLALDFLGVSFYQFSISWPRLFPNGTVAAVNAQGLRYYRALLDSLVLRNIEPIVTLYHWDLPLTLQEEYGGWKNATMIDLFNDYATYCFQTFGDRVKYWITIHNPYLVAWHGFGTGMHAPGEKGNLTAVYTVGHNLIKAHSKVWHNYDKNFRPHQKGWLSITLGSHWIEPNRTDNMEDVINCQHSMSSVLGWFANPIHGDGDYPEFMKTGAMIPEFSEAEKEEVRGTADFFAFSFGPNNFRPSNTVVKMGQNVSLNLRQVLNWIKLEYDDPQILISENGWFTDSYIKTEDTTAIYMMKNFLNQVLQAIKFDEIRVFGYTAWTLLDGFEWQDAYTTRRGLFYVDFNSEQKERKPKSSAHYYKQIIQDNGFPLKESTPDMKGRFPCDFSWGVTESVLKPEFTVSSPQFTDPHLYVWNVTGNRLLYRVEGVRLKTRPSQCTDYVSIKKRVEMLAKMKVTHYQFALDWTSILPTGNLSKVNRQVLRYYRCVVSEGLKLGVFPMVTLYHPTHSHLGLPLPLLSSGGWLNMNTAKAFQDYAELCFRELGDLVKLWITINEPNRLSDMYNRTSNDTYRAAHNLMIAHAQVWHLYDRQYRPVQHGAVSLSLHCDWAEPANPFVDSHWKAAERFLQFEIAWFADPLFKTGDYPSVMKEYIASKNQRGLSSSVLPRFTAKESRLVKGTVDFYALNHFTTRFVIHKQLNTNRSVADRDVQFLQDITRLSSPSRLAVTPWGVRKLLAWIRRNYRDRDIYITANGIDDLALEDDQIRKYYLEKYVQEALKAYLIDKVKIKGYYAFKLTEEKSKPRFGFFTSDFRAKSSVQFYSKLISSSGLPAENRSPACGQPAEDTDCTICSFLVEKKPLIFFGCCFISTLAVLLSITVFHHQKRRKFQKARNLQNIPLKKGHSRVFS

B1: FGF21ΔH (ligand)
chain: PIPDSSPLLQFGGQVRQRYLYTDDAQQTEAHLEIREDGTVGGAADQSPESLLQLKALKPGVIQILGVKTSRFLCQRPDGALYGSLHFDPEACSFRELLLEDGYNVYQSEAHGLPLHLPGNKSPHRDPAPRGPARFLPLPGLPPAPPEPPGILAPQPPDVGSSDPLSMVGPSQGRSPSYAS
Turning to B1, the “Glut1 Taqman unconjugated Protein EC50” value turned out to be 2.3 nM.
